# From patent publication US20160024487A1 (Novo Nordisk, published 2016)
# Where no end group is shown, it is not given here. The star is where a group is joined. Dnp = O=[N+]([O-])c1ccc(*)c([N+](=O)[O-])c1; 2Abz = Nc1ccccc1C(=O)O
# Biological target: Human plasma purified α-thrombin (human, UniProt P00734 328-622)
# Assay: cell-based or functional assay
binder,measurement,value
K(Dnp)DFLAEGGGVRIVGGK(2Abz) [Lys(Dnp)-DFLAEGGGVRIVGG-Lys(Abz)],Fold-Improved (FpA),1 fold
same,Fold-Improved (PAR-1),0.1 fold
